Data published in PMC6290791, “microRNA-29b mediates fibrotic induction of human xylosyltransferase-I in human dermal fibroblasts via the Sp1 pathway”.

B1: SP1.2 (dsDNA)
DNA 1: CTGATCGCCCCCACCCCCTTCCTTT
DNA 2: AAAGGAAGGGGGTGGGGGCGATCAG
B2: SP1.4 (dsDNA)
DNA 1: CCCAGGCCCCGCCCTCTCCGCCTCG
DNA 2: CGAGGCGGAGAGGGCGGGGCCTGGG
B3: SP1.3 (dsDNA)
DNA 1: TCCTCCCTCGGCTCCTCCCCCAGGC
DNA 2: GCCTGGGGGAGGAGCCGAGGGAGGA

Target: Sp3 (UniProt Q02447 1-781)
Experiment: EMSA; 5 mM MgCl2; 10 mM Tris pH 7.5, 50 mM KCl, 1 mM DTT, 75 ng/ul poly(dI-dC), 0.25 mg/ml BSA, 40 fmol probe, 1 ug protein, 20 min room temperature; Sp3 buffer plus 5% glycerol, 5 mM MgCl2, 0.025% NP-40; 6% PAGE in 0.5x TBE
Conditions: protein: commercial; label: 5'-biotin on both strands; blunt

Sequence of Sp3 (Q02447 whole entry): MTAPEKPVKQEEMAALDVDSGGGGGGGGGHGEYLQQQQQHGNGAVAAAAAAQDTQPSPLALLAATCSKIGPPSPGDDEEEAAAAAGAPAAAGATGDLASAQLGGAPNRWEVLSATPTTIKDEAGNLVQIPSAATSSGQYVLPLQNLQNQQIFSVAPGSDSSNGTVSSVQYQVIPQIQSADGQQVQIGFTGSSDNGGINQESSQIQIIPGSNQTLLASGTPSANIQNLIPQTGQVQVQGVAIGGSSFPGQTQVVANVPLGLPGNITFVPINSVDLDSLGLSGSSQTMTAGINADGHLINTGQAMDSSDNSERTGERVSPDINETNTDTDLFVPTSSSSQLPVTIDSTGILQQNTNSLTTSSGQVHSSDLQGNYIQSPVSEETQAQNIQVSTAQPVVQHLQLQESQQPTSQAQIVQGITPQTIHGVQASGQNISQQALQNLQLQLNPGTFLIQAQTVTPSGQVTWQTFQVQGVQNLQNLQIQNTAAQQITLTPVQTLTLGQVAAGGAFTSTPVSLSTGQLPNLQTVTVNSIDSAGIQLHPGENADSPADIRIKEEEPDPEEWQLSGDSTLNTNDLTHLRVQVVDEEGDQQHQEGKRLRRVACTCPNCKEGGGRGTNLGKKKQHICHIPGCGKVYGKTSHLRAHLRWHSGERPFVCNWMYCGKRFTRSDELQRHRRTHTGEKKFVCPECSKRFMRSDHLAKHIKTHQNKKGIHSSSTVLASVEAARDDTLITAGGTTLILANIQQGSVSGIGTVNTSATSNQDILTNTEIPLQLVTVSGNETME

Point of comparison: B2, binding signal 83.4 % of strongest band. Against it:
- B1 — higher, 99.3 % of strongest band
- B3 — higher, 100 % of strongest band
